Test results from patent publication US20260109776A1 (Amgen, published 2026).

T1: cynoCD40(1-193) (cynomolgus monkey, UniProt P25942 21-193 (human entry))
T1 construct: Soluble form used in Octet; also called cynomolgus monkey CD40
T1 chain: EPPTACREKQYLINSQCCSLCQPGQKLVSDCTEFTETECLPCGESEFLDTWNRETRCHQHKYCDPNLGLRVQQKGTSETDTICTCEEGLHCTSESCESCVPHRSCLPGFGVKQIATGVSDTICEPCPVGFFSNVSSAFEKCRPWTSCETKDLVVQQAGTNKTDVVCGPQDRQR

T2: cynoCD40(1-193) (cynomolgus monkey, UniProt P25942 21-193 (human entry))
T2 construct: also called soluble cynomolgus monkey CD40
T2 chain: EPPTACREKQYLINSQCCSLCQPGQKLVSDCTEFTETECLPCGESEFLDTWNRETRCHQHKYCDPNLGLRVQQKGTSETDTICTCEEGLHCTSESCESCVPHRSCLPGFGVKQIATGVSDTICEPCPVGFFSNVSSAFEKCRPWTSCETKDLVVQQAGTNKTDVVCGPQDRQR

T3: cynoMSLN(296-598) (cynomolgus monkey)
T3 chain: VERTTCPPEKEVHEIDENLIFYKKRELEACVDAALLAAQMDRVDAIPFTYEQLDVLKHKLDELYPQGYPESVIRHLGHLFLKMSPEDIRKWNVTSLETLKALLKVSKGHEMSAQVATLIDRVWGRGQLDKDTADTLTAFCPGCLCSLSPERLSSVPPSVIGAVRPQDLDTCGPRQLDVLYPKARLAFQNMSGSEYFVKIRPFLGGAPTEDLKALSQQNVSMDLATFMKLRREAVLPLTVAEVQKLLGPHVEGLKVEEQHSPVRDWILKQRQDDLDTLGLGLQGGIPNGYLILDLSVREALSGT


Tests used:
huCD40(1-193) [1] = target: T4, huCD40(1-193) (human, UniProt P25942 21-193); experiment: Octet, soluble antigen
T4 construct: Soluble form used in Octet; also called human CD40; soluble human CD40

cynoCD40(1-193) [2] = target: T1, cynoCD40(1-193); experiment: Octet, soluble antigen
huMSLN(296-598) [3] = target: huMSLN(296-598) (human, UniProt Q13421 296-598); experiment: Octet, soluble antigen
Target sequence in this assay (Q13421 other isoform, or with tags, fused parts or gaps): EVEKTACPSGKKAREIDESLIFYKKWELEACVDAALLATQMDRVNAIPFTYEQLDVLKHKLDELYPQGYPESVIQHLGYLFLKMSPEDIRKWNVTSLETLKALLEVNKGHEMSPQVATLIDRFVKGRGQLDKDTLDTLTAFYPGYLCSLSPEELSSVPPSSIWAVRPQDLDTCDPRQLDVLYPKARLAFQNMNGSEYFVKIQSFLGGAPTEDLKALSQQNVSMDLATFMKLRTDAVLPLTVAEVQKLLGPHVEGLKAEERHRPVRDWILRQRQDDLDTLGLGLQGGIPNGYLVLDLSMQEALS

[4] = target: human CD40 on purified human B cells (human, UniProt P25942 21-277); experiment: cell-based or functional assay
huCD40(1-193) [5] = target: T5, huCD40(1-193) (human, UniProt P25942 21-193); experiment: Octet
T5 construct: also called soluble human CD40
Experimental: (§1) A panel of mesothelin×CD40 bispecific antibodies were generated in the IgG-scFv format (Table 13) and evaluated for binding to soluble forms of human and cynomolgus monkey CD40 and human and cynomolgus monkey mesothelin using the Octet assay (Table 14). Association rate (Kon), disassociation rate (Kdis), and equilibrium binding constant (KD) were calculated. […] These bispecific antibodies were next evaluated for their ability to induce mesothelin-dependent activation of human B cells. CHO cells expressing human mesothelin were seeded into a 96 well plate. The next day varying concentrations of the mesothelin×CD40 IgG-scFv antibodies were added to the wells along with purified human B cells and the plates were incubated for an additional 48 hours. Upregulation of CD86, a marker of CD40-mediated B cell activation, was quantified on B cells by flow cytometry.

cynoCD40(1-193) [6] = target: T2, cynoCD40(1-193); experiment: Octet
Experimental: as §1

huMSLN(296-598) [7] = target: T6, huMSLN(296-598) (human, UniProt Q13421 296-598); experiment: Octet
T6 construct: also called soluble human mesothelin
Experimental: as §1
T6 sequence (Q13421 other isoform, or with tags, fused parts or gaps): as above

cynoMSLN(296-598) = target: T3, cynoMSLN(296-598); experiment: Octet
Experimental: as §1

human CD40 = human CD40 (human, UniProt P25942 21-277); experiment: cell-based or functional assay

Kd (huCD40(1-193) [5]) [nM]	koff (huCD40(1-193) [5]) [s⁻¹]	kon (huCD40(1-193) [5]) [M⁻¹ s⁻¹]	Kd (cynoCD40(1-193) [6]) [nM]	koff (cynoCD40(1-193) [6]) [s⁻¹]	kon (cynoCD40(1-193) [6]) [M⁻¹ s⁻¹]	Kd (huMSLN(296-598) [7]) [nM]	koff (huMSLN(296-598) [7]) [s⁻¹]	kon (huMSLN(296-598) [7]) [M⁻¹ s⁻¹]	Kd (cynoMSLN(296-598)) [nM]	koff (cynoMSLN(296-598)) [s⁻¹]	kon (cynoMSLN(296-598)) [M⁻¹ s⁻¹]	EC50 (nM), CD86 upregulation on human B cells with huMSLN-CHO cells (human CD40) [nM]	Binder	other results
–	–	–	–	–	–	–	–	–	–	–	–	–	Anti-CD40xMSLN IgG-Fab molecule 5968-1 (bispecific antibody) chain 1: QVQLVESGGGLVKPGGSLRLSCAASGFTFSDYYMSWIRQAPGKGLEWISYISSSESIIYYVDSVKGRFTISRDNAKNSLYLQMNSLRAEDTAVYYCARDVGSHFDYWGQGTLVTVSS chain 2: DIQMTQSPSSVSASVGDRVTITCRASQDISRWLAWYQQKPGKAPKLLISAASRLQSGVPSRFSGSGSGTDFTLTISSLQPEDFAIYYCQQAKSFPRTFGQGTKVEIKR chain 3: EVQLLESGGGLVQPGGSLRLSCAASGFTFSRNAMSWVRQAPGKGLEWVSATGGSGISTYYADSVKGRFTISRDNSKNTLYLQMNSLRAEDTAVYYCARGYSNSWWYFDYWGQGTLVTVSS chain 4: QSALTQPASVSGSPGQSITISCTGTSSDVGNYNLVSWYQQHPGKAPKLMIFEVNQRPSGVSNRFSGSKSGTTASLTISGLQAADEADYFCCSYTTSSTYVIFGGGTKLTVLGQPKAAPSVTLFPPSSEELQANKATLVCLISDFYPGAVTVAWKADSSPVKAGVETTTPSKQSNNKYAASSYLSLTPEQWKSHRSYSCQVTHEGSTVEKTVAPTECS	Kd (huCD40(1-193) [1]): 0.4 nM; koff (huCD40(1-193) [1]): 0.000256 s⁻¹; kon (huCD40(1-193) [1]): 650000 M⁻¹ s⁻¹; Kd (cynoCD40(1-193) [2]): 0.7 nM; koff (cynoCD40(1-193) [2]): 0.000414 s⁻¹; kon (cynoCD40(1-193) [2]): 598000 M⁻¹ s⁻¹; Kd (huMSLN(296-598) [3]): 0.3 nM; koff (huMSLN(296-598) [3]): 0.000353 s⁻¹; kon (huMSLN(296-598) [3]): 1.03e+06 M⁻¹ s⁻¹; EC50 (nM), CD86 upregulation on human B cells in the presence of CHO cells expressing human mesothelin [4]: 0.004 nM
0.5	0.000787	1.46e+06	0.8	0.00057	745000	0.4	0.000211	552000	6.1	0.00109	179000	0.00434	6055-2 (bispecific antibody, IgG-scFv: IgG (CD40) 37A6, scFv (MSLN) 4H6) heavy: not shown light: SYELTQPPSVSVSPGQTASITCSGERLGNKYICWYQQKPGQSPVLVIYQDFKRPSGIPERFSGSNSGITATLTISGTQAMDEADYYCQAWDSRTVVFGGGTKLTVLGQPKAAPSVTLFPPSSEELQANKATLVCLISDFYPGAVTVAWKADSSPVKAGVETTTPSKQSNNKYAASSYLSLTPEQWKSHRSYSCQVTHEGSTVEKTVAPTECS	–
0.8	0.000333	438000	1.4	0.0004	277000	1.3	0.000462	367000	17	0.00578	336000	0.00333	6054-2 (bispecific antibody, IgG-scFv: IgG (CD40) 37A6, scFv (MSLN) 6F4) heavy: not shown light: SYELTQPPSVSVSPGQTASITCSGERLGNKYICWYQQKPGQSPVLVIYQDFKRPSGIPERFSGSNSGITATLTISGTQAMDEADYYCQAWDSRTVVFGGGTKLTVLGQPKAAPSVTLFPPSSEELQANKATLVCLISDFYPGAVTVAWKADSSPVKAGVETTTPSKQSNNKYAASSYLSLTPEQWKSHRSYSCQVTHEGSTVEKTVAPTECS	–
0.9	0.000427	453000	0.5	0.000125	263000	0.4	0.000151	341000	4.3	0.00109	252000	0.00403	6053-2 (bispecific antibody, IgG-scFv: IgG (CD40) 39C2, scFv (MSLN) 4H6) heavy: not shown light: QSALTQPASVSGSPGQSITISCTGTSSDVGNYNLVSWYQQHPGKAPKLMIYEVNRRPSGVSNRFSGSKSGNTASLTISGLQAEDEAEYYCCSYAGRDTFVVFGGGTKLTVLGQPKAAPSVTLFPPSSEELQANKATLVCLISDFYPGAVTVAWKADSSPVKAGVETTTPSKQSNNKYAASSYLSLTPEQWKSHRSYSCQVTHEGSTVEKTVAPTECS	–
1	0.00044	431000	0.9	0.000413	447000	1.1	0.00046	432000	16	0.00535	326000	0.00281	6023-2 (bispecific antibody, IgG-scFv: IgG (CD40) 39C2, scFv (MSLN) 6F4) heavy: not shown light: QSALTQPASVSGSPGQSITISCTGTSSDVGNYNLVSWYQQHPGKAPKLMIYEVNRRPSGVSNRFSGSKSGNTASLTISGLQAEDEAEYYCCSYAGRDTFVVFGGGTKLTVLGQPKAAPSVTLFPPSSEELQANKATLVCLISDFYPGAVTVAWKADSSPVKAGVETTTPSKQSNNKYAASSYLSLTPEQWKSHRSYSCQVTHEGSTVEKTVAPTECS	–
